± gives the uncertainty stated by the source.
Assay: protein stability index of a GFP-peptide fusion (yeast GPS) (PSI 1-4); higher = more stable; sorted into four equal gates, so the index is relative within each strain
Procedure, shortened: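 Sequencing reads from sorted gates were used to score each peptide. The library consisted of tiled 17-residue yeast protein peptides fused downstream of GFP on a Cherry-expressing plasmid, pooled and carried in yeast. Mid-log cultures in leucine-free medium were split into four equal gates by GFP/Cherry ratio, and each gate's plasmids were PCR-amplified and Illumina-sequenced. The protein stability index adds up, over all gates, the read frequency multiplied by the gate number.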

Sequence | protein stability index (doa10∆) | protein stability index (pdr5∆) | protein stability index (san1∆) | protein stability index (ubr1∆)
QLLNGQKIVVVRAEELN [RPL16A] | 1.28 ± 0.049 | 1.31 ± 0.051 | 1.24 ± 0.13 | 1.21 ± 0.056
KFFMKHGLILELQKIWQ [SRB5] | 2.94 ± 0.096 | 3.02 ± 0.089 | 3.32 ± 0.069 | 3.18 ± 0.037
FGAKMSRTLILSILNEI [SIN4] | 1.84 ± 0.063 | 1.42 ± 0.044 | 1.36 ± 0.088 | 1.68 ± 0.039
EELRKHAQKRVSNASAR [SKI6] | 3.25 ± 0.23 | 3.22 ± 0.095 | 3.01 ± 0.11 | 2.89 ± 0.073
ESNKRYRFFKKISEDPV [SNF12] | 3.16 ± 0.16 | 2.97 ± 0.16 | 2.99 ± 0.18 | 2.69 ± 0.061
TSNDASNKKETKKKRKP [ITC1] | 3.08 ± 0.089 | 3.25 ± 0.075 | 3.21 ± 0.088 | 3.29 ± 0.074
NKIDQSLQYIERQQDEL [YJL041W/NSP1] | 3.18 ± 0.15 | 3.19 ± 0.12 | 3.25 ± 0.096 | 2.93 ± 0.061
GSGKSNMMDAISFVLGV [SMC1] | 3.18 ± 0.073 | 3.17 ± 0.074 | 3.24 ± 0.058 | 3.32 ± 0.043
DFLLSDWNKRFSHLAGG [BRR2] | 2.71 ± 0.053 | 2.82 ± 0.055 | 2.96 ± 0.065 | 2.85 ± 0.048
NGKIWVKCEELSNTLAC [RRP40] | 3.29 ± 0.12 | 3.24 ± 0.13 | 3.26 ± 0.067 | 3.6 ± 0.16
SLEDPQVRKKQIETINF [YDL116W/NUP84] | 1.72 ± 0.12 | 1.82 ± 0.088 | 2.19 ± 0.11 | 2.23 ± 0.19
NNDKREIQEELERFNKR [SMC1] | 2.49 ± 0.24 | 3.52 ± 0.13 | 3.4 ± 0.062 | 3.27 ± 0.068
EMKNIRGPYLVIVPLST [SNF2] | 1.44 ± 0.054 | 1.51 ± 0.053 | 1.44 ± 0.087 | 1.38 ± 0.043
EVEPALLLLQDYVTNPD [RPN1] | – | 1.55 ± 0.11 | – | 1.14 ± 0.17
ALSQSSLLKTKLKQQSS [RRI1] | 2.13 ± 0.037 | 2.51 ± 0.035 | 2.22 ± 0.048 | 2.26 ± 0.035
KLLFQELLSMNIAPRLR [RET1] | 1.35 ± 0.052 | 1.31 ± 0.049 | 1.35 ± 0.089 | 1.24 ± 0.042
TSTDGKKRSKARKETYS [HTB1] | 3.07 ± 0.24 | 3.11 ± 0.14 | – | –
EFTKINTPLVGAAFKVI [YJL039C/NUP192] | 1.63 ± 0.039 | 1.91 ± 0.044 | 1.6 ± 0.084 | 1.69 ± 0.037
LSATGTRSAKKMVIAEL [YJR042W/NUP85] | – | – | 2.97 ± 0.15 | –
LLAEYDNIYRNLQKIDK [MED4] | 2.4 ± 0.048 | 2.69 ± 0.042 | 2.61 ± 0.05 | 2.32 ± 0.028
GSEEKAFVPKKRKTNII [SRP54] | 3.12 ± 0.069 | 3.2 ± 0.077 | 2.88 ± 0.067 | 3.02 ± 0.06
QAQAQAHAQHQPSQQPQ [GAL11] | 2.967 ± 0.022 | 2.972 ± 0.019 | 2.974 ± 0.022 | 3.028 ± 0.018
SSEGFYSKIKHLGLDDP [SIR2] | 1.83 ± 0.2 | 2.72 ± 0.14 | 1.96 ± 0.17 | 1.2 ± 0.14
VKLMKNITDYETHPDNS [BRR2] | 2.37 ± 0.054 | 2.42 ± 0.042 | 2.54 ± 0.049 | 2.09 ± 0.04
NKYQYSLKQYAGNLITT [SRP68] | 3.23 ± 0.23 | 1.44 ± 0.14 | 1.7 ± 0.11 | 1.54 ± 0.06
KIINTHSDMASKMYNTD [PRP8] | 2.72 ± 0.049 | 2.76 ± 0.052 | 2.77 ± 0.05 | 2.28 ± 0.029
PTGGKAKLSEGTSFRRK [RPS27A] | 3.4 ± 0.081 | 3.33 ± 0.11 | 3.33 ± 0.065 | 3.33 ± 0.059

Sequence | protein stability index (doa10∆) | protein stability index (pdr5∆) | protein stability index (san1∆) | protein stability index (ubr1∆)
PSLNPIPHFIDNNSSLN [PRP8] | 2.3 ± 0.063 | 2.52 ± 0.05 | 2.78 ± 0.055 | 2.4 ± 0.045
KRRVTNLEFNYTKPYPN [SMC2] | 3.12 ± 0.071 | 2.88 ± 0.14 | 2.75 ± 0.16 | 2.81 ± 0.12
FDSVIVENLTVAQECIA [SMC1] | 1.69 ± 0.089 | 1.62 ± 0.11 | 1.84 ± 0.15 | 1.27 ± 0.061
MDQDNNNHNDSNRLHPP [GRR1] | 2.73 ± 0.062 | 2.79 ± 0.062 | 2.69 ± 0.064 | 2.9 ± 0.04
TFEFINIAFDAHMSIGC [YML031W/NDC1] | 1.2 ± 0.074 | 1.38 ± 0.067 | 1.19 ± 0.13 | 1.33 ± 0.062
IALNLASKKFGKICLIL [SSN2] | 2.41 ± 0.11 | 2.83 ± 0.062 | 2.9 ± 0.071 | 3.12 ± 0.061
LASNFDNFDYFNQRDGE [MED1] | 3.3 ± 0.08 | 3.17 ± 0.09 | 3.2 ± 0.084 | 3.1 ± 0.11
EDSSILQSIVNEISRNG [PCI8] | 3.13 ± 0.13 | 2.96 ± 0.1 | 3 ± 0.054 | 3.41 ± 0.09
NEAEQVYLSLLDKDSSQ [RPN6] | 3.03 ± 0.2 | 3.29 ± 0.076 | – | 3.45 ± 0.22
NESSSNTTVISDKQRRL [DIS3] | 3.15 ± 0.086 | 3.21 ± 0.086 | 2.98 ± 0.061 | 3.05 ± 0.058
KALPIRRDDEVLVVRGS [RPL26A] | 3.06 ± 0.18 | 3.05 ± 0.12 | 3.23 ± 0.13 | 3.32 ± 0.15
KMYDYEEKEESNLAATK [RPN11] | 3.17 ± 0.074 | 3.06 ± 0.082 | 2.87 ± 0.056 | 2.96 ± 0.1
KSNGSSDDDNIGQSEEL [ISW2] | 3.3 ± 0.1 | 3.44 ± 0.09 | 3.31 ± 0.08 | 3.42 ± 0.12
HIILDTISECNLYDDVK [MED1] | 2.49 ± 0.073 | 3.18 ± 0.087 | 3.19 ± 0.067 | 3 ± 0.11
MKSLLTELSNKETTIEK [YIL149C/MLP2] | 3.23 ± 0.13 | 3 ± 0.12 | 3.41 ± 0.07 | 3.25 ± 0.062
DEDKFKKLKPIVAKYDP [PRP28] | 2.78 ± 0.077 | 2.9 ± 0.088 | 2.9 ± 0.094 | 1.98 ± 0.059
DTNSSKPKNTKENLSKS [SIR4] | 1.33 ± 0.21 | 1.56 ± 0.12 | 2.05 ± 0.15 | –
TLFVRDQDSAVVSSNIK [QCR2] | 2.67 ± 0.23 | 2.52 ± 0.2 | – | 2.67 ± 0.17
TLIDLVKHSPGAIKPFT [ECM29] | 2.16 ± 0.2 | 2.93 ± 0.15 | 1.95 ± 0.2 | 2.92 ± 0.099
EKPDNSNHNNLNLNNSE [SNF2] | 3.02 ± 0.043 | 3.19 ± 0.051 | 3.15 ± 0.036 | 3.17 ± 0.034
LEDQQRQQKLLLETKLR [SWI1] | 2.81 ± 0.12 | 2.65 ± 0.14 | 3.12 ± 0.083 | 2.31 ± 0.17
QVQGQQQAQSFVGKKNT [SSN3] | 2.55 ± 0.053 | 2.69 ± 0.048 | 2.57 ± 0.052 | 2.57 ± 0.041
YMQRTVEEAHDFNMKLA [RPB2] | 3.09 ± 0.098 | 3.04 ± 0.1 | 3.02 ± 0.075 | 2.99 ± 0.062
YLLTQQQIWKSPNFKNY [SOH1] | 1.73 ± 0.047 | 1.62 ± 0.05 | 1.18 ± 0.081 | 2.19 ± 0.03
SDEEEVTEMSNNANVLG [BRR2] | 3.03 ± 0.065 | 3.1 ± 0.049 | 2.83 ± 0.063 | 3.17 ± 0.046
SGGSRNTSESLLVDIQK [SMC2] | 2.59 ± 0.14 | 2.22 ± 0.16 | 2.33 ± 0.12 | 1.73 ± 0.13
TATYNDNMSEEQWLRQF [SNF2] | 3.28 ± 0.092 | 3.33 ± 0.12 | 3.27 ± 0.1 | 3.5 ± 0.089

Sequence | protein stability index (doa10∆) | protein stability index (pdr5∆) | protein stability index (san1∆) | protein stability index (ubr1∆)
LYQIDYLGTKVELPYGA [PRE1] | 1.72 ± 0.089 | 1.81 ± 0.079 | 1.62 ± 0.099 | 2.23 ± 0.073
PNFNVEIMQQKFPATNV [ECM29] | 2.25 ± 0.26 | 3 ± 0.2 | – | 2.86 ± 0.17
APKWYPSEDVAAPKKTR [RPL6B] | 2.13 ± 0.093 | 2.09 ± 0.065 | 1.87 ± 0.092 | 1.98 ± 0.1
VILAKNENETRDKVCKQ [PGD1] | 3.45 ± 0.18 | 2.96 ± 0.12 | – | –
GVIALGQFVTLGCTLVT [RMP1] | 2.65 ± 0.24 | 1.36 ± 0.15 | 1.18 ± 0.15 | 1.5 ± 0.12
ETNGYDPFSIYGFSNKE [SNF5] | 1.64 ± 0.047 | 1.51 ± 0.075 | 2.12 ± 0.083 | 2.03 ± 0.063
RQMKDVNAPLPTPFKVD [RPN2] | 3.07 ± 0.079 | 3.04 ± 0.066 | 2.79 ± 0.064 | 2.86 ± 0.053
GSTGGLGASFGQQQQQS [YGL172W/NUP49] | 2.76 ± 0.2 | 2.81 ± 0.076 | 2.12 ± 0.12 | 3.1 ± 0.1
KISNSEFFNPEIFHLLQ [SIN4] | 2.13 ± 0.079 | 1.74 ± 0.072 | 1.61 ± 0.087 | 2.16 ± 0.07
DCLDKLLNDECTESTRE [SNF2] | 3.5 ± 0.14 | 3.4 ± 0.13 | 3.48 ± 0.091 | 3.41 ± 0.17
FAISMGYLFKVSALDKC [ECM29] | – | 1.67 ± 0.21 | 1.91 ± 0.23 | 2.13 ± 0.13
RLFIGDQNNKKMVGLRG [SNF2] | 2.65 ± 0.1 | 2.87 ± 0.085 | 2.36 ± 0.1 | 2.69 ± 0.082
NNNNNNNNNSTRPQMPS [GRR1] | 2.891 ± 0.019 | 3.041 ± 0.017 | 3.062 ± 0.018 | 3.027 ± 0.018
VGVGKLNKLYGGAKSRG [RPS19A] | 3.29 ± 0.066 | 3.39 ± 0.1 | 3.2 ± 0.047 | 3.58 ± 0.11
TMANILYYPQKPLGTTR [RPB2] | 1.77 ± 0.057 | 2.47 ± 0.095 | 2.27 ± 0.074 | 1.45 ± 0.04
KIPILAQHESFLRQKIC [RPN9] | 1.72 ± 0.046 | 2.06 ± 0.055 | 1.85 ± 0.076 | 2.14 ± 0.038
MAVGKNKRLSRGKKGLK [RPS1B] | 1.49 ± 0.13 | 1.62 ± 0.083 | 1.64 ± 0.14 | 1.46 ± 0.12
QQQRRQLTPQQQQLVNQ [GAL11] | 2.72 ± 0.049 | 3 ± 0.05 | 2.8 ± 0.038 | 3 ± 0.049
GRVKALEQFMERNNIGE [YDL116W/NUP84] | 2.78 ± 0.12 | 2.68 ± 0.08 | 2.75 ± 0.15 | 3.07 ± 0.1
PENTAMFNPLHESYCLP [YMR129W/POM152] | 2.44 ± 0.043 | 2.66 ± 0.042 | 2.66 ± 0.037 | 2.6 ± 0.03
QTARKSTGGKAPRKQLA [HHT1] | 3.18 ± 0.11 | 3.29 ± 0.098 | 3.05 ± 0.072 | 3.37 ± 0.086
PEGTLSGGSRNTSESLL [SMC2] | 3.4 ± 0.2 | 3.29 ± 0.15 | 3.44 ± 0.13 | 3.28 ± 0.25
KINQERLERRINLTKVT [CSI1] | 1.91 ± 0.062 | 1.96 ± 0.062 | 1.4 ± 0.095 | 1.37 ± 0.045
KIAKRRQVYKPVLDNPF [POP3] | 1.92 ± 0.077 | 2.33 ± 0.082 | 1.99 ± 0.11 | 2.08 ± 0.066
YGQRAVLKFAAHTGATP [RPS0B] | 2.27 ± 0.055 | 2.88 ± 0.039 | 2.66 ± 0.046 | 2.66 ± 0.041
